Experimental findings from patent publication US20250289903A1 (PURINNOMIA BIOTECH, published 2025) are described below.

To fix the notation:
T1: human CD39 (ectonucleoside triphosphate diphosphohydrolase-1) (human, UniProt P49961 1-510)
T1 construct: whole, on cells; also called hCD39; ENTPD1
T1 sequence (looked up): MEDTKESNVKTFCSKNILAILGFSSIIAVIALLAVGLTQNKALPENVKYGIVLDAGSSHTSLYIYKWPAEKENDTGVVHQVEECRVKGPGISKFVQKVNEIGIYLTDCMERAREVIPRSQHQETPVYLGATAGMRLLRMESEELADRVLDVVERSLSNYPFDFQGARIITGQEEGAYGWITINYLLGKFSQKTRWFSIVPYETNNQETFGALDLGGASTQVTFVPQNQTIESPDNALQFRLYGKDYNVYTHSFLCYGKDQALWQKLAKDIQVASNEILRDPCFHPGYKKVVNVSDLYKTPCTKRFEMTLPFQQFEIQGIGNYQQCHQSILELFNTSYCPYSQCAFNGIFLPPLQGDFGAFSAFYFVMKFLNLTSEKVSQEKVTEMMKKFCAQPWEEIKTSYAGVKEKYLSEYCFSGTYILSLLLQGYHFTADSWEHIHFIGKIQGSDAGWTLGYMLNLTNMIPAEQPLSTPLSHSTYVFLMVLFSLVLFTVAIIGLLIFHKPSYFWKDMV

B1: PEONP22, afucosylated counterpart of PEOWT22 (antibody, human IgG1, kappa, V domains shown)
VH: EVQLVESGGGVVRPGGSLRLSCAASGFTFSSYAMHWVRQAPGKGLEWVAVISYDVSNKYYADSVKGRFTISRDNSKNTLYLQMNSLRAEDTAVYYCARSYYYYYGMDVWGQGTTVTVSS
VL: DVVMTQSPSSLSASVGDRVTITCRASQSISRYLAWYQQKPGQAPRLLIYDASNRATGIPVRFSGSGSGTDFTLTISRLEPEDFAVYYCQQFGRSPRTFGQGTRLEIKR
modifications: afucosylated (Fc glycan); no genetic modifications
notes: Produced by CHO cells stably transfected with the parental PEOWT22 plasmid
B2: PEO21, Human/Rabbit chimeric anti-human CD39 monoclonal antibody (antibody, V domains shown)
VH: QSVEESGGRLVTPGTPLTLTCTVSGFSLSSYAMSWVRQAPGKGLEYIGIISSSGSTYYASWAKGRFTISKTSTTVDLKISSPTTEDTATYFCARDRVIYSIGPYYFNLWGPGTLVTVSS
VL: AYDMTQTPSSVSATVGGTVTINCQASEIIYSNLAWYQQKPGQPPKLLIYGASTLASGVPSRFKGSGSGTEYTLTISDLQCDDAATYYCQQSFSSNNVGNIFGGGTEVVVK
notes: also called clone PEO21
B3: PEO20, Human/Rabbit chimeric anti-human CD39 monoclonal antibody (antibody, V domains shown)
VH: QSVEESGGRLVTPGTPLTLTCTVSGFSLSSYAISWVRQAPGKGLEYIAIINSYGTTYYASWAKGRVTISKTSSTVDLKISSPTTEDTATYFCARGDSYGSGVGLGLWGPGTLVTVSS
VL: AYDMTQTPASVEVAVGGTVTIKCQASQNIYSNLAWYQQKPGQRPKLLIYRASSLASGVPSRFSGSGSGTEFTLTISGVQCDDAATYYCQQGFSSNNVDNTFGGGTEVVVK
notes: also called clone PEO20
B4: PEO19, Human/Rabbit chimeric anti-human CD39 monoclonal antibody (antibody, V domains shown)
VH: QSVEESGGRLVTPGTHLTLTCTVSGFSLSKSIISWVRQAPGKGLEYIGIIGSSGSTYYANWAKGRFTISKTSSTTVDLRMTSLTPEDTATYFCARGLLYSGNKSWGPGTLVTVSS
VL: AIDMTQTPSSVSAAVGGTVTINCQSSQSVLLNNQLSWFQQKPGQPPKLLIYDASTLESGVPSRFTGSGSGTQFTLTISDLECDDAATYYCLGGYSGNLYAFGGGTEVLVK
notes: also called clone PEO19
B5: PEO22, optimized afucosylated counterpart of PEOWT22 (antibody, human IgG1, kappa, V domains shown)
VH: EVQLVESGGGVVRPGGSLRLSCAASGFTFSSYAMHWVRQAPGKGLEWVAVISYDVSNKYYADSVKGRFTISRDNSKNTLYLQMNSLRAEDTAVYYCARSYYYYYGMDVWGQGTTVTVSS
VL: DVVMTQSPSSLSASVGDRVTITCRASQSISRYLAWYQQKPGQAPRLLIYDASNRATGIPVRFSGSGSGTDFTLTISRLEPEDFAVYYCQQFGRSPRTFGQGTRLEIKR
modifications: afucosylated (Fc glycan); no genetic modifications
B6: PEOWT22, fully human anti-CD39 monoclonal antibody (parent, fully fucosylated) (antibody, human IgG1, kappa, V domains shown)
VH: EVQLVESGGGVVRPGGSLRLSCAASGFTFSSYAMHWVRQAPGKGLEWVAVISYDVSNKYYADSVKGRFTISRDNSKNTLYLQMNSLRAEDTAVYYCARSYYYYYGMDVWGQGTTVTVSS
VL: DVVMTQSPSSLSASVGDRVTITCRASQSISRYLAWYQQKPGQAPRLLIYDASNRATGIPVRFSGSGSGTDFTLTISRLEPEDFAVYYCQQFGRSPRTFGQGTRLEIKR
B7: PEO23, Human/Rabbit chimeric anti-human CD39 monoclonal antibody (antibody, V domains shown)
VH: QSVEESGGRLVTPGTPLTLTCTASGFSLSTHAINWVRQAPGKGLEWIGITYASGRTYYASWAKGRFTISKTSTTVDLKITSPTTEDTATYFCARNGADETFYYFDLWGPGTLVTVSS
VL: AYDMTQTPASVEAAVGGTVTIKCQASQNINTWLSWYQQKAGQPPKLLIYRASTLASGVSSRFKGSGSGTQFTLTISGVECADAATYYCQQYDASINIDNAFGGGTEVVVK
notes: also called clone PEO23
B8: PEO24, Human/Rabbit chimeric anti-human CD39 monoclonal antibody (antibody, V domains shown)
VH: QSVEESGGRLVTPGTPLTLTCTVSGIDLSSNAMSWVRQAPGKGLEYIGIIRNNDITYYASWAKGRFTISKTSTTVDLIITSPTTEDTATYFCARGGGSYSIVFWNLWGPGTLVTVSS
VL: AYDMTQTPASVEVAVGGTVTINCQASERIYSNLAWYQQKPGQRPKLLIYYASTLASGVSSRFKGSGSGTQFTLTISGVQCADAATYYCQQGYSNNNVDNTFGGGTEVVVR
notes: also called clone PEO24
B9: PEO18, Human/Rabbit chimeric anti-human CD39 monoclonal antibody (antibody, V domains shown)
VH: QSVKEAGGRLVTPGGSLTLTCTVSGFSLSAYGISWVRQAPGKGLEWIGIIYSSGRTYYANWAKGRFTISKTSSTTVDLKMTSLTTEDTAAYFCARSRAGISSGDGFDSWGPGTLVTVSS
VL: ALVMTQTPSSVSAAVGGTVTINCQASQNIYSNLAWYQQKPGQRPQLLIYRASTLASGVPSRFKGSASGTEYTLTISGVQCDDAATYYCQQGFDSSNIDNTFGGGTEVVVT
notes: also called clone PEO18

In the first test the target is T1, human CD39 (ectonucleoside triphosphate …). Nature of the test: stable immune complex assay, HCC1739BL cells, 2 µg/mL, anti-human IgG Fc AF488 MFI, 24 h 37°C vs 20 min 4°C. How it is done:
Exemplary anti-human CD39 antibodies presenting high, low and no ADCC activity (2 μg/mL) were incubated with HCC1739BL cells for 24 hours at 37° C. in 5% CO₂ or 20 minutes at 4° C., followed by secondary antibody staining (anti-human IgG (Fc specific), Alexa Fluor® 488) for 30 minutes at 4° C. Cells were then washed and analyzed by flow cytometry. The difference in AF488 MFI between 20 minutes and 24 hours treatment represents the loss of human CD39 on cell membrane that was calculated as described in Materials and Methods. […] Hu/Ra: Human/Rabbit chimeric antibody; hIgG1: humanized rabbit antibody, IgG1 isotype.
HCC1739BL cells (5×10⁵ cells/mL) were incubated with anti-human CD39 monoclonal antibodies (2 μg/mL) or left untreated for 24 hours at 37° C. in 5% CO₂. The following day, untreated cells were exposed to the same panel of monoclonal antibodies (2 μg/mL) but for 20 minutes at 4° C. to obtain the basal level of CD39 expression. Cells were then washed twice with cell staining buffer and stained with anti-human IgG (Fc specific) Alexa Fluor® 488 (1:2000) for 30 minutes at 4° C., followed by two additional washes and fixation with paraformaldehyde (PFA, 2%) for 10 minutes at room temperature. Lastly, cells were washed twice and analyzed by a Cytek™ Aurora flow cytometer (Cytek Biosciences). Alexa Fluor® 488 (AF488) MFI was detected, and data was analyzed by FCS Express 7 software (De Novo Software). The percentage of human CD39 loss on cell membrane at 24 hours was calculated as: [(20 min MFI-24 h MFI/20 min MFI)]X100.
In the case of B1, the “loss of human CD39 (immune complex) on cell membrane at 24 hours” value is less than 30%.
Still for that read-out and setting: the same measure for B2: less than 30%; for B3: less than 30%.
The same measure, in the same setting: the same measure for B4: less than 30%.

The target is the same in the next test. Nature of the test: cell-based or functional assay.
As for B5, the “EC50 of NK cytotoxicity toward human eosinophils (in-vitro ADCC assay, human NK effector cells)” value came to 0.294 ng/mL.
On the same count and under the same terms, the same measure for B6: 3.03 ng/mL.

A further test shares this target. The test is described as follows: flow cytometry epitope competition on HCC1739BL cells, competitor PE-Clone A1. As to the method: HCC1739BL cells were incubated with a panel of 18 anti-human CD39 monoclonal antibodies (Human/Rabbit chimeric clones; unconjugated, 2 μg/mL) at 4° C. for 30 minutes, followed by washing and staining with PE-conjugated mouse anti-human CD39 monoclonal antibody (Clone A1) for 30 minutes at 4° C. Cells were then analyzed by flow cytometry and PE median fluorescence intensity (MFI) was detected. Cells incubated with media instead of chimeric antibody were used as control.
Unconjugated anti-human CD39 monoclonal antibodies (Human/Rabbit chimeric clones; 2 μg/mL) were incubated with HCC1739BL cells (1×10⁵ cells) for 30 minutes at 4° C. Cells were then washed twice with cell staining buffer and stained with PE-conjugated mouse anti-human CD39 monoclonal antibody Clone A1 (0.25 μg/mL, Biolegend #328208) for 30 minutes at 4° C. Cells were then washed twice and analyzed by a Cytek™ Aurora flow cytometer. PE median fluorescence intensity (MFI) was detected, and data was analyzed by FCS […] Express 7 software (De Novo Software). Cells incubated with media instead of the chimeric antibody were used as control.
In the case of B7, the binding result is recorded as “binds”.
Regarding B8, the binding result is listed as “binds”.
On to B9, for which the binding result is listed as “binds”.
